The experiment addresses 11th type II cohesin module of the primary scaffoldin ScaA1 of B. cellulosolvens (BcCohScaA1_(11)) (Bacteroides (Pseudobacteroides) cellulosolvens) (UniProt Q9FDJ9). The experiment is described as follows: ITC; 308 K; Doc constructs in the cell titrated with 28 injections of 10 μl BcCohScaA1_(11); single-site model.
UniProt Q9FDJ9, sequence (Q9FDJ9 entry or part of it): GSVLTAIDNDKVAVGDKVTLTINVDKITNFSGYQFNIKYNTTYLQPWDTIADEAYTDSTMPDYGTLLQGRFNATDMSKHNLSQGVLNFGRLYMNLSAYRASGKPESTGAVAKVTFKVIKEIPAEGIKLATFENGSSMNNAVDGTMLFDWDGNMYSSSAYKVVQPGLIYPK

As for “TrxA-BcDocCel48 mutant M1 (M17S/A18D) (domain or fragment)”, the Ka was 1.11e+07 M⁻¹, the dH was -16 kcal/mol and the stoichiometry N came to 0.98.
“TrxA-BcDocCel48 mutant M1 + F60A (domain or fragment)”: the Ka was 58400 M⁻¹, the dH is -60.9 kcal/mol and the stoichiometry N came to 1.01.
As for “TrxA-BcDocCel48 mutant M2 (M50S/A51D) (domain or fragment)”, the Ka was 1.41e+06 M⁻¹, the dH was -17.7 kcal/mol and the stoichiometry N was determined as 0.99.
With “TrxA-BcDocCel48 mutant M2 + F27A (domain or fragment)”, the Ka amounted to 445000 M⁻¹, the dH is -13.2 kcal/mol and the stoichiometry N was 1.01.
For the substance “TrxA-BcDocCel48 mutant M21A/I54A (domain or fragment)”, the Ka came to 1.2e+06 M⁻¹, the dH is -9.3 kcal/mol and the stoichiometry N worked out at 1.
Consider “TrxA-BcDocCel48 mutant N16A/N49A (domain or fragment)”, for which the Ka was found to be 136000 M⁻¹, the dH was -14.1 kcal/mol and the stoichiometry N was found to be 0.99.
As for “TrxA-BcDocCel48 mutant Q25A/Q58A (domain or fragment)”, the Ka was 1.35e+06 M⁻¹, the dH was -8.86 kcal/mol and the stoichiometry N was found to be 0.99.
Turning to “Wild-type BcDocCel48 fused to TrxA (TrxA-BcDocCel48) (domain or fragment)”, the Ka turned out to be 3.31e+07 M⁻¹, the dH is -15.2 kcal/mol and the stoichiometry N stood at 0.98.

Values taken from publication PMC8063739.
